Test results from the RNAGym collection of RNA variant scans (doi:10.1101/gr.219683.116).

B1: mRNA-splicing (parent)
chain: AGUUGCUGCUGGGAGCUCCAGCACAGUGAAAUGGACAGAAGGGCAGAGCAA

Variants of: B1
Assay: exon inclusion enrichment index; higher = more inclusion; WT1 exon 5 minigene, HEK293

Variant | exon inclusion enrichment index
C6A U7A C9A U10A G13C | 1.04
C6A U7A C9A U10A G13A | 1.97
C6A U7A C9A U10A G41C G42C | 2.14
C6A U7A C9A U10A G41C G42U | 2.17
C6A U7A C9A U10A G41C G42A | 1
C6A U7A C9A U10A G34C A35U | 0.104
C6A U7A C9A U10A G34C A35C | 0.0588
C6A U7A C9A U10A G34C A35G | 0.484
C6A U7A C9A U10A A37U G38A | 0.258
C6A U7A C9A U10A A37U G38U | 0.112
C6A U7A C9A U10A A37U G38C | 0.667
C6A U7A C9A U10A G34U A35U | 0.0771
C6A U7A C9A U10A G34U A35C | 0.203
C6A U7A C9A U10A G34U A35G | 0.134
C6A U7A C9A U10A G42U G43A | 1.42
C6A U7A C9A U10A G42U G43U | 1.61
C6A U7A C9A U10A G42U G43C | 0.532
C6A U7A C9A U10A G43C C44U | 0.606
C6A U7A C9A U10A G43C C44G | 3.16
C6A U7A C9A U10A G43C C44A | 2.09
C6A U7A C9A U10A A47C | 1.15
C6A U7A C9A U10A A47G | 0.13
C6A U7A C9A U10A A47U | 0.546
C6A U7A C9A U10A A35G C36A | 0.281

Variant | exon inclusion enrichment index
C6A U7A C9A U10A A35G C36U | 0.00209
C6A U7A C9A U10A A35G C36G | 0.0241
C6A U7A C9A U10A G38U A39U | 0.0139
C6A U7A C9A U10A G38U A39G | 0.321
C6A U7A C9A U10A G38U A39C | 0.692
C6A U7A C9A U10A C19U A20G | 0.121
C6A U7A C9A U10A C19U A20C | 0.579
C6A U7A C9A U10A C19U A20U | 0.19
C6A U7A C9A U10A G43A | 2.02
C6A U7A C9A U10A G43C | 1
C6A U7A C9A U10A G43U | 0.644
C6A U7A C9A U10A C24G A25U | 0.778
C6A U7A C9A U10A C24G A25G | 0.308
C6A U7A C9A U10A C24G A25C | 2.12
C6A U7A C9A U10A G15U C16A | 0.381
C6A U7A C9A U10A G15U C16G | 0.298
C6A U7A C9A U10A G15U C16U | 0.36
C6A U7A C9A U10A C44U A45G | 0.419
C6A U7A C9A U10A C44U A45U | 0.433
C6A U7A C9A U10A C44U A45C | 1.16
C6A U7A C9A U10A G26C U27G | 2.09
C6A U7A C9A U10A G26C U27C | 2.32
C6A U7A C9A U10A G26C U27A | 0.842
C6A U7A C9A U10A G46A A47C | 1.64

Variant | exon inclusion enrichment index
C6A U7A C9A U10A G46A A47U | 0.928
C6A U7A C9A U10A G46A A47G | 0.249
C6A U7A C9A U10A G11C G12A | 1.98
C6A U7A C9A U10A G11C G12C | 2.68
C6A U7A C9A U10A G11C G12U | 1.91
C6A U7A C9A U10A C18G C19A | 0.924
C6A U7A C9A U10A C18G C19G | 0.718
C6A U7A C9A U10A C18G C19U | 0.076
C6A U7A C9A U10A C22U A23U | 0.226
C6A U7A C9A U10A C22U A23C | 0.267
C6A U7A C9A U10A C22U A23G | 0.694
C6A U7A C9A U10A A40G G41A | 0.23
C6A U7A C9A U10A A40G G41U | 0.576
C6A U7A C9A U10A A40G G41C | 2.13
C6A U7A C9A U10A G13C A14G | 1.42
C6A U7A C9A U10A G13C A14C | 1.58
C6A U7A C9A U10A G13C A14U | 1.56
C6A U7A C9A U10A A40U G41C | 1.33
C6A U7A C9A U10A A40U G41A | 0.0256
C6A U7A C9A U10A A40U G41U | 0.373
C6A U7A C9A U10A C16G U17C | 0.22
C6A U7A C9A U10A C16G U17A | 0.533
C6A U7A C9A U10A C16G U17G | 0.02
C6A U7A C9A U10A C36U A37U | 0.411

Variant | exon inclusion enrichment index
C6A U7A C9A U10A C36U A37G | 0.602
C6A U7A C9A U10A C36U A37C | 0.478
C6A U7A C9A U10A C19A | 0.348
C6A U7A C9A U10A C19U | 0.0565
C6A U7A C9A U10A C19G | 0.576
C6A U7A C9A U10A A45U G46A | 0.485
C6A U7A C9A U10A A45U G46C | 0.614
C6A U7A C9A U10A A45U G46U | 0.185
C6A U7A C9A U10A A39G A40U | 0.0506
C6A U7A C9A U10A A39G A40C | 1.22
C6A U7A C9A U10A A39G A40G | 0.0665
C6A U7A C9A U10A C24G | 0.763
C6A U7A C9A U10A C24A | 0.545
C6A U7A C9A U10A C24U | 0.161
C6A U7A C9A U10A A37C G38A | 0.719
C6A U7A C9A U10A A37C G38C | 0.896
C6A U7A C9A U10A A37C G38U | 0.426
C6A U7A C9A U10A G21C C22G | 1.63
C6A U7A C9A U10A G21C C22U | 0.813
C6A U7A C9A U10A G21C C22A | 0.729
C6A U7A C9A U10A A35G | 0.217
C6A U7A C9A U10A A35U | 0.119
C6A U7A C9A U10A A35C | 0.237
C6A U7A C9A U10A A30U A31U | 0.426

Variant | exon inclusion enrichment index
C6A U7A C9A U10A A30U A31G | 0.653
C6A U7A C9A U10A A30U A31C | 0.579
C6A U7A C9A U10A A45C G46U | 0.191
C6A U7A C9A U10A A45C G46C | 0.542
C6A U7A C9A U10A A45C G46A | 0.367
C6A U7A C9A U10A G41U G42A | 0.192
C6A U7A C9A U10A G41U G42C | 1.58
C6A U7A C9A U10A G41U G42U | 0.717
C6A U7A C9A U10A C16U U17C | 0.225
C6A U7A C9A U10A C16U U17G | 0.212
C6A U7A C9A U10A C16U U17A | 0.291
C6A U7A C9A U10A A40C G41U | 0.431
C6A U7A C9A U10A A40C G41A | 0.218
C6A U7A C9A U10A A40C G41C | 1.98
C6A U7A C9A U10A G28C A29G | 1.45
C6A U7A C9A U10A G28C A29U | 0.358
C6A U7A C9A U10A G28C A29C | 0.683
C6A U7A C9A U10A G21U C22G | 0.565
C6A U7A C9A U10A G21U C22A | 0.136
C6A U7A C9A U10A G21U C22U | 0.172
C6A U7A C9A U10A G42C G43A | 1.78
C6A U7A C9A U10A G42C G43U | 1.96
C6A U7A C9A U10A G42C G43C | 1.88
C6A U7A C9A U10A A40U | 0.579

Variant | exon inclusion enrichment index
C6A U7A C9A U10A A40C | 1.8
C6A U7A C9A U10A A40G | 0.737
C6A U7A C9A U10A G33C G34C | 0.353
C6A U7A C9A U10A G33C G34U | 0.522
C6A U7A C9A U10A G33C G34A | 0.421
C6A U7A C9A U10A C44A A45G | 1.09
C6A U7A C9A U10A C44A A45C | 1.9
C6A U7A C9A U10A C44A A45U | 1.71
C6A U7A C9A U10A A39U A40G | 0.0729
C6A U7A C9A U10A A39U A40C | 1.19
C6A U7A C9A U10A A39U A40U | 0.184
C6A U7A C9A U10A G38C | 0.524
C6A U7A C9A U10A G38A | 0.314
C6A U7A C9A U10A G38U | 0.223
C6A U7A C9A U10A G11U G12U | 1.53
C6A U7A C9A U10A G11U G12C | 2.55
C6A U7A C9A U10A G11U G12A | 0.701
C6A U7A C9A U10A C44G A45C | 1.44
C6A U7A C9A U10A C44G A45U | 0.598
C6A U7A C9A U10A C44G A45G | 0.124
C6A U7A C9A U10A A39C | 0.201
C6A U7A C9A U10A A39U | 0.0237
C6A U7A C9A U10A A39G | 0.404
C6A U7A C9A U10A G21A C22A | 0.228

Variant | exon inclusion enrichment index
C6A U7A C9A U10A G21A C22G | 0.568
C6A U7A C9A U10A G21A C22U | 0.235
C6A U7A C9A U10A G11U | 2.89
C6A U7A C9A U10A G11C | 3.21
C6A U7A C9A U10A G11A | 1.96
C6A U7A C9A U10A G38C A39U | 0.0576
C6A U7A C9A U10A G38C A39C | 0.874
C6A U7A C9A U10A G38C A39G | 0.734
C6A U7A C9A U10A G34C | 0.179
C6A U7A C9A U10A G34U | 0.123
C6A U7A C9A U10A G34A | 0.344
C6A U7A C9A U10A C24A A25U | 0.754
C6A U7A C9A U10A C24A A25G | 0.796
C6A U7A C9A U10A C24A A25C | 2.22
C6A U7A C9A U10A A35C C36G | 0.657
C6A U7A C9A U10A A35C C36A | 0.329
C6A U7A C9A U10A A35C C36U | 0.0347
C6A U7A C9A U10A G12A G13U | 0.801
C6A U7A C9A U10A G12A G13C | 1.94
C6A U7A C9A U10A G12A G13A | 1.6
C6A U7A C9A U10A G21U | 0.507
C6A U7A C9A U10A G21A | 0.506
C6A U7A C9A U10A G21C | 0.86
